From patent publication US10100114B2, “Antibodies specific for TROP-2 and their uses” (RINAT NEUROSCIENCE CORP., priority 2011, dated 2018)

Key:
Colo205 xenograft = test: In vivo efficacy of Trop-2 ADCs, colorectal tumor Colo205 xenograft model; set-up: species or system nu/nu mice; conditions: single dose of 6 mg/kg, tail vein; FIG. 10
Method: In vivo efficacy study of Trop-2 ADCs was performed with target-expressing colo205 xenograft model. Three millions of colo205 colon cancer cells were implanted subcutaneously into 5-8 weeks old nu/nu mice until the tumor sizes reached ˜300 mm^3. […] Tumor volume is measured once a week by a Caliper device and calculated with the following formula: Tumor volume=(length×width^2)/2. Studies were terminated before their tumor volumes reached 2000 mm^3.

[1] = tested on: ovarian cancer patient derived xenograft (PDX Ova196756); test: In vivo efficacy of Trop-2 ADC, ovarian PDX Ova196756; set-up: species or system CB17/SCID mice; conditions: single dose, […] and 1.5 mg/kg, tail vein; FIG. 11
Method: This tumor sample was derived from surgical specimen and propagated in NSG mice (Jackson Laboratories, Bar Harbor, Me.). For efficacy studies, approximately 1-2 mm^3 of tumor fragments were implanted subcutaneously into the lateral flanks of CB17/SCID mice. […] Tumor volume was measured once a week by a caliper device and calculated with the following formula: Tumor volume=(length×width^2)/2. Studies were terminated before their tumor volumes reached 2000 mm^3.

[2] = tested on: SW620 cells (Trop-2 non-expressing); test: Cytotoxicity of ADCs (CellTiter-Glo), SW620; format: cell-based; conditions: Table 13; SW620, Trop2 expression −; 96 hours; concentration of total Ab
Method: Target expressing (A431, BxPC3, CAPAN-2 and Colo205) or non-expressing (SW620) cells were seeded on white walled clear bottom plates at 2000 cells/well for 24 hours before treatment. Cells were treated with 4 fold serially diluted antibody-drug conjugates in triplicates. Cell viability was determined by CellTiter-Glo® Luminescent Cell Viability Assay 96 (Promega, Madison Wis.) 96 hours after treatment. Relative cell viability was determined as percentage of untreated control. IC50 was calculated by Prism software.
2-methylalanyl-N-[(3R,4S,5S)-3-methoxy-1-{(2S)-2-[(1R,2R)-1-methoxy-2-methyl-3-oxo-3-{[(1S)-2-phenyl-1-(1,3-thiazol-2-yl)ethyl]amino}propyl]pyrrolidin-1-yl}-5-methyl-1-oxoheptan-4-yl]-N-methyl-L-valinamide is a novel auristatin, as described in U.S. Application Nos. 61/561,255 and 61/676,423. Method of conjugating Trop-2 antibodies using transglutaminase tags is described in Example 9. Target expressing or non-expressing (SW620) cells were seeded on white walled clear bottom plates at 2000 (A431, BxPC3, NCI-H292, NCI-H1650, MDA-MB-468 and SW620), 2500 (Calu-3) or 3000 (OVCAR3 and SKBR3) cells per well for 24 hours before treatment. Cells were treated with 4 fold serially diluted antibody-drug conjugates in triplicates. Cell viability was determined by CellTiter-Glo® Luminescent Cell Viability Assay 96 (Promega, Madison, Wis.) 96 hours after treatment. Relative cell viability was determined as percentage of untreated control. IC50 was calculated by GraphPad Prism 5 software and expressed as concentration (nM) of total Ab.

BxPC3 xenograft = test: In vivo efficacy of humanized Trop-2 ADCs, pancreatic tumor BxPC3 xenograft model; set-up: species or system CB17/SCID mice; conditions: single dose, tail vein; FIGS. 9A-9C
Method: In vivo efficacy studies of Trop-2 ADCs were performed with target-expressing BxPC3 xenograft model. Two million BxPC3 pancreatic cancer cells were implanted subcutaneously into 5-8 weeks old CB17/SCID mice until the tumor sizes reached between 300-400 mm^3. […] Tumor volume was measured once a week by a Caliper device and calculated with the following formula: Tumor volume=(length×width^2)/2. Studies were terminated before their tumor volumes reached 2000 mm^3.

[3] = tested on: pancreatic cancer patient derived xenograft (PDX Pan0146); test: In vivo efficacy of Trop-2 ADC, pancreatic PDX Pan0146
Method: In vivo efficacy studies of Trop-2 ADC using humanized anti-Trop-2 antibody (h7E6SVG) conjugated with TG6-vc0101 were performed with target-expressing pancreatic cancer patient derived xenograft model (PDX Pan0146) from Jackson Laboratories (Bar Harbor, Me.). For efficacy studies, 1-2 mm^3 of tumor fragments were implanted subcutaneously into the lateral flanks of the animals. […] Gemcitabine was given at 75 mg/kg twice weekly for a total of 6 doses. […] Gemcitabine was given once weekly at 75 mg/kg for 4 doses. Tumor volume was measured once a week by a Caliper device and calculated with the following formula: Tumor volume=(length×width^2)/2. Studies were terminated before their tumor volumes reached 2000 mm^3.

[4] = tested on: pancreatic cancer patient derived xenograft (PDX Pan0135); test: In vivo efficacy of Trop-2 ADC, pancreatic PDX Pan0135; conditions: 6 mg/kg single dose, tail vein; FIG. 14
Method: In vivo efficacy study of Trop-2 ADC using humanized anti-Trop-2 antibody (h7E6SVG) conjugated with PEG6MMAD was performed with target-expressing pancreatic cancer patient derived xenograft model (PDX Pan0135) from Jackson Laboratories. For efficacy studies, approximately 1-2 mm^3 of tumor fragments were implanted subcutaneously into the lateral flanks of the animals. Animals were randomized by tumor sizes once they reached ˜300 mm^3 and 6 mg/kg of h7E6SVG-N297Q/K222R-PEG6MMAD and the control conjugate were administered through bolus tail vein injection with single dose. Tumor volume was measured once a week by a Caliper device and calculated with the following formula: Tumor volume=(length×width^2)/2. Studies were terminated before their tumor volumes reached 2000 mm^3.

[5] = tested on: pancreatic cancer patient derived xenograft (PDX Pan144607); test: In vivo efficacy of Trop-2 ADC, pancreatic PDX Pan144607; set-up: species or system CB17/SCID mice; conditions: single dose of 1.5, 3.0 and 6.0 mg/kg, tail vein; FIG. 13
Method: In vivo efficacy study of Trop-2 ADC using humanized anti-Trop-2 antibody (h7E6SVG) conjugated with vc0101 or PEG6MMAD was performed with target-expressing pancreatic cancer patient derived xenograft model (PDX Pan144607). This tumor sample was derived from surgical specimen and propagated in NSG mice (Jackson Laboratories, Bar Harbor, Me.). For efficacy studies, approximately 1-2 mm^3 of tumor fragments were implanted subcutaneously into the lateral flanks of CB17/SCID mice. Animals were randomized by tumor sizes once they reached ˜300 mm^3, and single dose of 1.5, 3.0 and 6.0 mg/kg h7E6SVG-N297Q/K222R-PEG6MMAD and the control conjugate were administered through bolus tail vein injection. Tumor volume was measured once a week by a Caliper device and calculated with the following formula: Tumor volume=(length×width^2)/2. Studies were terminated before their tumor volumes reach 2000 mm^3.

Molecule	tumor response, Colo205 xenograft (Colo205 xenograft)	tumor response, ovarian PDX Ova196756 [1]	IC50 [2]	tumor response, BxPC3 xenograft (BxPC3 xenograft)	tumor response on continuous dosing, Pan0146 PDX ([3]; […] weekly x4, 1.5 mg/kg bi-weekly x2 or 3.0 mg/kg single dose, FIG. 12B)	efficacy to induce tumor regression compared with gemcitabine, Pan0146 PDX ([3]; single dose vs gemcitabine 75 mg/kg twice weekly, 6 doses, FIG. 12A)	tumor response, Pan0135 PDX [4]	tumor response, Pan144607 PDX [5]
h7E6SVG-TG6-vc0101: h7E6SVG with heavy chain C-terminal TG6 tag (SEQ ID NO: 79) conjugated with AcLys-vc-PABC-0101 (conjugate) VH: QVQLQESGPGLVKPSETLSLTCTVSGGSISSYGVHWIRQPPGKGLEWIGVIWTSGVTDYNSALMGRVTISVDTSKNQFSLKLSSVTAADTAVYYCARDGDYDRYTMDYWGQGTLVTVSS VL: DIVMTQSPDSLAVSLGERATINCRASKSVSTSGYSYMHWYQQKPGQPPKLLIYLASNLESGVPDRFSGSGSGTDFTLTISSLQAEDVAVYYCQHSRELPYTFGQGTKLEIK	tumor regression	tumor regression	156 nM	tumor regression	sustained tumor regression	superior efficacy to gemcitabine	–	–
h7E6SVG-N297Q/K222R-PEG6MMAD: h7E6SVG with N297Q/K222R mutations conjugated with PEG6-propionyl-MMAD (conjugate) VH: QVQLQESGPGLVKPSETLSLTCTVSGGSISSYGVHWIRQPPGKGLEWIGVIWTSGVTDYNSALMGRVTISVDTSKNQFSLKLSSVTAADTAVYYCARDGDYDRYTMDYWGQGTLVTVSS VL: DIVMTQSPDSLAVSLGERATINCRASKSVSTSGYSYMHWYQQKPGQPPKLLIYLASNLESGVPDRFSGSGSGTDFTLTISSLQAEDVAVYYCQHSRELPYTFGQGTKLEIK	–	–	> 267 nM	tumor regression	–	–	tumor regression	tumor regression
